Data as given in patent US20240018252A1.
Changes are numbered by the printed parent chain.

B1: P5A2/h2B4 anti-BCMA/CD3 bispecific (bispecific antibody, V domains shown)
VH 1: EVQLLESGGGLVQPGGSLRLSCAASGFTFSSYAMNWVRQAPGKGLEWVSAISDSGGSTYYADSVKGRFTISRDNSKNTLYLQMNSLRAEDTAVYYCARYWPMDIWGQGTLVTVSS
VL 1: EIVLTQSPGTLSLSPGERATLSCRASQSVSSSYLAWYQQKPGQAPRLLMYDASIRATGIPDRFSGSGSGTDFTLTISRLEPEDFAVYYCQQYGSWPLTFGQGTKVEIK
VH 2: EVQLVESGGGLVQPGGSLRLSCAASGFTFSDYYMTWVRQAPGKGLEWVAFIRNRARGYTSDHNASVKGRFTISRDNAKNSLYLQMNSLRAEDTAVYYCARDRPSYYVLDYWGQGTTVTVSS
VL 2: DIVMTQSPDSLAVSLGERATINCTSSQSLFNVRSRKNYLAWYQQKPGQPPKLLISWASTRESGVPDRFSGSGSGTDFTLTISSLQAEDVAVYYCKQSYDLFTFGSGTKLEIK
B2: h2B4-yaesTK_Ep (bispecific antibody, part only; not given: anti-EpCam arm, constant regions, V domains shown, not shown: another chain or arm of the molecule; a dimerising Fc or GST; small tags and cut ends)
VH: B1 VH 2 with H62Y, N63A, A64E
VL: B1 VL 2 with T24K
B3: h2B4-1d_Ep (bispecific antibody, part only; not given: anti-EpCam arm, constant regions, V domains shown, not shown: another chain or arm of the molecule; a dimerising Fc or GST; small tags and cut ends)
VH: B1 VH 2
VL: B1 VL 2
B4: h2B4-TK_Ep (bispecific antibody, part only; not given: anti-EpCam arm, constant regions, V domains shown, not shown: another chain or arm of the molecule; a dimerising Fc or GST; small tags and cut ends)
VH: B1 VH 2
VL: B1 VL 2 with T24K
B5: h2B4-hnpsTK_Ep (bispecific antibody, part only; not given: anti-EpCam arm, constant regions, V domains shown, not shown: another chain or arm of the molecule; a dimerising Fc or GST; small tags and cut ends)
VH: B1 VH 2 with A64P
VL: B1 VL 2 with T24K
B6: h25A8-B5_Ep (bispecific antibody, part only; not given: anti-EpCam arm, constant regions, V domains shown, not shown: another chain or arm of the molecule; a dimerising Fc or GST; small tags and cut ends)
VH: EVQLVESGGGLVKPGGSLRLSCAASGFTFSTYAMNWVRQAPGKGLEWVGRIRSKINNYATYYAESVKGRFTISRDDSKNTLYLQMNSLKTEDTAVYYCVRHETLRSGISWFASWGQGTLVTVSS
VL: QAVVTQEPSLTVSPGGTVTLTCRSSTGAVTTSNYANWVQQKPGQAPRGLIGGTNTRAPGTPARFSGSLLGGKAALTLSGAQPEDEAEYYCVLWYNNYWVFGGGTKLTVL
B7: h25A8-C8_Ep (bispecific antibody, part only; not given: anti-EpCam arm, constant regions, V domains shown, not shown: another chain or arm of the molecule; a dimerising Fc or GST; small tags and cut ends)
VH: B6 VH with S30N
VL: B6 VL with Y97H
B8: h25A8-B8_Ep (bispecific antibody, part only; not given: anti-EpCam arm, constant regions, V domains shown, not shown: another chain or arm of the molecule; a dimerising Fc or GST; small tags and cut ends)
VH: B6 VH
VL: B6 VL with Y97H
B9: h25A8-B13_Ep (bispecific antibody, part only; not given: anti-EpCam arm, constant regions, V domains shown, not shown: another chain or arm of the molecule; a dimerising Fc or GST; small tags and cut ends)
VH: B6 VH
VL: B6 VL with S24T, Y97H
B10: h25A8-B12_Ep (bispecific antibody, part only; not given: anti-EpCam arm, constant regions, V domains shown, not shown: another chain or arm of the molecule; a dimerising Fc or GST; small tags and cut ends)
VH: B6 VH
VL: B6 VL with S24A, Y97H

What follows are binders tested against human BCMA (B-Cell Maturation Antigen) on myeloma cells (human) (UniProt Q02223) (assay: cell-based or functional assay).
Sequence of human BCMA (B-Cell Maturation Antigen) on myeloma cells (human) (Q02223 whole entry): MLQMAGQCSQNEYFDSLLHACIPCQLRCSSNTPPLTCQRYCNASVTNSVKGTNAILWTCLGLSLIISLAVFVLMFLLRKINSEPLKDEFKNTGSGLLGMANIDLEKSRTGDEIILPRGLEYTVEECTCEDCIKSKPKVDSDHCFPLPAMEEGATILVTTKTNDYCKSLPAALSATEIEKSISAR
In the case of B1, the EC50 (nM), killing of primary myeloma cells in bone marrow mononuclear cells of patient MM00146 (flow cytometry, day 5) is reported as 0.946 nM, the EC50, T-cell mediated cytotoxicity (LDH release, 20 h) on KMS12BM (BCMA+) cells is reported as 1.51 nM and the EC50, T-cell mediated cytotoxicity (LDH release, 20 h) on KMS12PE (BCMA+++) cells is reported as 0.371 nM. The EC50, T-cell mediated cytotoxicity (LDH release, 20 h) on MOLP8 (MOLP8+) cells was 5.23 nM.

The binders below were run against human CD3 (huCD3ed) (human) (UniProt P07766) (assay: Biacore SPR, bispecific hIgG2dA format, 37 C; CD3 antigen not given).
Sequence of human CD3 (huCD3ed) (human) (P07766 23-126, chain 1 of 2): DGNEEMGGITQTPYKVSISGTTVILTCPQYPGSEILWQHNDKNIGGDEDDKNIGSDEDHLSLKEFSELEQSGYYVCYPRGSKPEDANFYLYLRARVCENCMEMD
Sequence of human CD3 (huCD3ed) (human) (P04234 22-105, chain 2 of 2, further chain): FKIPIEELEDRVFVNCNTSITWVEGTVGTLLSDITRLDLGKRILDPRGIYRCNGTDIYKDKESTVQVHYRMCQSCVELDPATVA
B2 gave a Kd of 54.4 nM, a koff of 0.0258 s⁻¹ and a kon of 474000 M⁻¹ s⁻¹. The t½ was 27 s.
For B3, the Kd was 40.4 nM, the koff was 0.0237 s⁻¹ and the kon was 586000 M⁻¹ s⁻¹. It also gave a t½ of 29.4 s.
Work on B4 yielded a Kd of 31 nM, a koff of 0.0213 s⁻¹ and a kon of 687000 M⁻¹ s⁻¹. It also gave a t½ of 32.4 s.
Work on B5 yielded a Kd of 31.2 nM, a koff of 0.0235 s⁻¹ and a kon of 754000 M⁻¹ s⁻¹. It also gave a t½ of 29.4 s.
B6 gave a Kd of 45 nM, a koff of 0.0581 s⁻¹ and a kon of 1.29e+06 M⁻¹ s⁻¹. The t½ was 12 s.
In the case of B7, the Kd is reported as 25.1 nM, the koff is reported as 0.0301 s⁻¹ and the kon is reported as 1.2e+06 M⁻¹ s⁻¹. For the same binder, the t½ was 22.8 s.
B8 showed a Kd of 18.7 nM, a koff of 0.0222 s⁻¹ and a kon of 1.19e+06 M⁻¹ s⁻¹. For the same binder, the t½ was 31.2 s.
Work on B9 yielded a Kd of 18.3 nM, a koff of 0.0219 s⁻¹ and a kon of 1.2e+06 M⁻¹ s⁻¹. The t½ was 31.8 s.
B10 gave a Kd of 21 nM, a koff of 0.0241 s⁻¹ and a kon of 1.15e+06 M⁻¹ s⁻¹. For the same binder, the t½ was 28.8 s.
